Starred links: 1 amine or outer side, 2 acyl side, 3 side chain; linkers in the order of their positions; H or OH if unused. Positions of bridges follow the written chain, without caps; N, C: chain ends. Non-standard residues stand in square brackets, D forms with d. Primed or numbered codes have the meaning given here. B5(4) = 2,2-bis(4-pentenyl)glycine = 2-amino-2-(pent-4-en-1-yl)hept-6-enoic acid (stitching residue), C=CCCCC(CCCC=C)(N[*:1])C(=O)[*:2]; B5(5) = 2,2-bis(4-pentenyl)glycine, 2-amino-2-(pent-4-en-1-yl)hept-6-enoic acid (stitching residue), C=CCCCC(CCCC=C)(N[*:1])C(=O)[*:2]; SeN = (S)-5-(((allyloxy)carbonyl)(methyl)amino)-2-amino-2-methylpentanoic acid, C=CCOC(=O)N(C)CCC[C@](C)(N[*:1])C(=O)[*:2]; B5(9) = 2-amino-2-(pent-4-en-1-yl)hept-6-enoic acid (2,2-bis(4-pentenyl)glycine), C=CCCCC(CCCC=C)(N[*:1])C(=O)[*:2]; Phe(3,4-F2) = N[C@@H](Cc1ccc(F)c(F)c1)C(=O)O; d(βAsp) = O=C(O)[C@@H](CC(=O)[*:2])N[*:1]; Ala(2-furyl) = N[C@@H](Cc1ccco1)C(=O)O; Phe(3-Me) = Cc1cccc(C[C@H](N)C(=O)O)c1; 2Nal = N[C@@H](Cc1ccc2ccccc2c1)C(=O)O; Bta = N[C@@H](Cc1csc2ccccc12)C(=O)O; αAllylPro = C=CC[C@@]1(C(=O)O)CCCN1; S8 = C=CCCCCCC[C@](C)(N)C(=O)O

Sequences and labels used below:
T1: full-length beta-Catenin (Uniprot ID P35222) (Homo sapiens (Human), UniProt P35222 2-781)
T1 construct: 'mature' is the nearest allowed form; also called bCat; B-Catenin
T1 sequence: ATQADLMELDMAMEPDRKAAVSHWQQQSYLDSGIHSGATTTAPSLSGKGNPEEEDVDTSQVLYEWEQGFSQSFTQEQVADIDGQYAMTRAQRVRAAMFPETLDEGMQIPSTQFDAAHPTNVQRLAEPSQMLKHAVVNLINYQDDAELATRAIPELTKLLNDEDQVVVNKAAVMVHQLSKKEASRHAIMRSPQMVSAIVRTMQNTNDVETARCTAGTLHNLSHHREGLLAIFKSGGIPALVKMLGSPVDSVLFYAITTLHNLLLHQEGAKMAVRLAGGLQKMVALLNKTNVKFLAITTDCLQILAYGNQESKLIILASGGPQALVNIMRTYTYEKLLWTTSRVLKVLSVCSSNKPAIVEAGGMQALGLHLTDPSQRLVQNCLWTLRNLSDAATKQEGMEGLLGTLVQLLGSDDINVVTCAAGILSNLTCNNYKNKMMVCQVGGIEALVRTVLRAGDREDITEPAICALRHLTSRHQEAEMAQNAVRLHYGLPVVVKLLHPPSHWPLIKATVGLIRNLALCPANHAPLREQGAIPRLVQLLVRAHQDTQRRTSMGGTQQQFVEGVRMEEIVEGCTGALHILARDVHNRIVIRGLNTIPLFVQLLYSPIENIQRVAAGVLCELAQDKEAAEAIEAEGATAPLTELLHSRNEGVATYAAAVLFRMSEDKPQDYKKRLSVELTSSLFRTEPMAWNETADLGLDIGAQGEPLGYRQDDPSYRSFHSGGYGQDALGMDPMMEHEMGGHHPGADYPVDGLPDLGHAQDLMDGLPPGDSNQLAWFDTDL

T2: full-length beta-Catenin (Uniprot ID P35222) (Homo sapiens (Human), UniProt P35222 1-781)
T2 construct: Used full-length in the FP and AlphaScreen assays; also called B-Catenin; bCat
T2 sequence: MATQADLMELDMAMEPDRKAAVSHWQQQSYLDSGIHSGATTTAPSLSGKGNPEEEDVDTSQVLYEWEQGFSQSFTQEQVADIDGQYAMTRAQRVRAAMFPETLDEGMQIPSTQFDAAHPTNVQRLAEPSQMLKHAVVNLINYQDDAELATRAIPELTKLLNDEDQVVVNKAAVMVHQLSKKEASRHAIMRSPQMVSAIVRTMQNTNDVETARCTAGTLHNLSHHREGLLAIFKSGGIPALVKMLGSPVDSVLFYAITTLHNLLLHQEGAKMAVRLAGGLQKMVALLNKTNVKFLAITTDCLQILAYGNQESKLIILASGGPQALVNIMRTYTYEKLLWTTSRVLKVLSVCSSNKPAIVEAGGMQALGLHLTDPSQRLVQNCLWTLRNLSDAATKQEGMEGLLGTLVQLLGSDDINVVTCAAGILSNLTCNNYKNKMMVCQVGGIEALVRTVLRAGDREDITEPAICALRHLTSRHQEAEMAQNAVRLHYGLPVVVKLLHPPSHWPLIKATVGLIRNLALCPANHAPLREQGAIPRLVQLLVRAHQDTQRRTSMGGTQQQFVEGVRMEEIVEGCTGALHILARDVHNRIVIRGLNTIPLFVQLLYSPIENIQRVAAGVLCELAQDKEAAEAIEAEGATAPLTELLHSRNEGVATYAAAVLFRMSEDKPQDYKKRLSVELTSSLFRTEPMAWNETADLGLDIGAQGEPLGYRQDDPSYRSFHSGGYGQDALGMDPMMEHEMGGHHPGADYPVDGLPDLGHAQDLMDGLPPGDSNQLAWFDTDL

T3: full-length beta-Catenin (Uniprot ID P35222) (Homo sapiens (Human), UniProt P35222 1-781)
T3 construct: the AlphaScreen used a Histidine (Nickel Chelate) detection kit, so a His tag is likely but not described; also called B-Catenin; bCat
T3 sequence: T2 sequence

B1: I-668 (peptide)
peptide: Ac-[αAllylPro][d(βAsp)]I[B5(9)]DEAAFQ[S8]F[Bta]Q-NH2
modifications: staple 1-4, 4-11
notes: Stapled peptide composition; earlier-eluting HPLC peak (staple isomer)
B2: I-190 (peptide)
peptide: Ac-[αAllylPro]DI[B5(5)]DDAAFQ[SeN]FWH-NH2
modifications: staple 1-4, 4-11; not fully specified; printed as Ac-PL3-Asp-Ile-B5-Asp-Asp-Ala-Ala-Phe-Gln-SeN-Phe-Trp-His-NH2
notes: Stapled peptide composition
B3: I-187 (peptide)
peptide: XDAXDEAAFAXFWA
modifications: not fully specified; As printed: Ac-PL3-Asp-Ala-B5-Asp-Glu-Ala-Ala-Phe-Ala-S8-Phe-Trp-Ala-NH2. N-terminal Ac; C-terminal amide; PL3 (1), B5 (4), S8 (11) stapled by olefin metathesis (PL3-B5 and B5-S8)
notes: Stapled peptide composition; this is the later-eluting isomer composition
B4: I-188 (peptide)
peptide: Ac-[αAllylPro]DI[B5(5)]DDAAFQ[SeN]FWH-NH2
modifications: staple 1-4, 4-11; not fully specified; printed as Ac-PL3-Asp-Ile-B5-Asp-Asp-Ala-Ala-Phe-Gln-SeN-Phe-Trp-His-NH2
notes: Stapled peptide composition
B5: I-186 (peptide)
peptide: XDAXDEAAFAXFWA
modifications: not fully specified; As printed: Ac-PL3-Asp-Ala-B5-Asp-Glu-Ala-Ala-Phe-Ala-S8-Phe-Trp-Ala-NH2. N-terminal Ac; C-terminal amide; PL3 (1), B5 (4), S8 (11) stapled by olefin metathesis (PL3-B5 and B5-S8)
notes: Stapled peptide composition; this is the earlier-eluting isomer composition
B6: I-189 (peptide)
peptide: Ac-[αAllylPro]DI[B5(5)]DDAAFQ[SeN]FWH-NH2
modifications: staple 1-4, 4-11; not fully specified; printed as Ac-PL3-Asp-Ile-B5-Asp-Asp-Ala-Ala-Phe-Gln-SeN-Phe-Trp-His-NH2
notes: Stapled peptide composition
B7: I-328 (peptide)
peptide: Ac-[αAllylPro]DA[B5(4)]DDAA[Ala(2-furyl)]V[S8]FWQ-NH2
modifications: staple 1-4, 4-11; not fully specified; printed as Ac-PL3-Asp-Ala-B5-Asp-Asp-Ala-Ala-2FurA-Val-S8-Phe-Trp-Gln-NH2
notes: Ac-PL3-Asp-Ala-B5-Asp-Asp-Ala-Ala-2FurA-Val-S8-Phe-Trp-Gln-NH2; stapled peptide composition

The target in the first assay is T1, full-length beta-Catenin (Uniprot ID …). In words: fluorescence polarization competition, full-length beta-catenin with 5FAM-TCF4(10-53) probe as competitor. As for the experimental part: (§1) The plate was incubated protected from light for 60 minutes at 20° C. prior to read. Reads were performed on a CLARIOstar plate reader (BMG Labtech) in duplicate, and data were fitted to a 1:1 binding model with hill slope using an in-house script. All provided concentrations are final concentrations.
A general note: In fluorescence polarisation assays a small probe gives low polarisation when free and higher when bound to something large.
By EC50 is commonly meant the concentration at which the effect is half-maximal. B1 displayed an EC50 of 675 nM.

The molecule Ac-[αAllylPro]DI[B5(9)]DEAAFQ[S8]F[Bta]V-NH2 (staple 1-4, 4-11, Stapled peptide composition) [I-645] yielded an EC50 of 395 nM.

For the next assay, the target named is T2, full-length beta-Catenin (Uniprot ID …). As to the kind of experiment: AlphaScreen (nickel chelate) competition; full-length beta-catenin + biotin-TCF4(10-53) probe as competitor; peptide titrated. The essentials:
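Titrated peptide was preincubated 15 minutes at 20° C, then donor and acceptor beads were added for 60 minutes at 20° C protected from light. Reads were done in duplicate, and data were fitted to a 1:1 binding model with Hill slope; concentrations are final.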
A general note: In Alpha technology, singlet oxygen from a donor bead excites a nearby acceptor bead.
For B2, the EC50 was determined as 94 nM.

Regarding B3, the EC50 amounted to 204 nM. On the same count and under the same terms, for B4 the value was 156 nM.

For Ac-[αAllylPro]DA[B5(4)]DEAA[Phe(3-Me)]V[S8]FWQ-NH2 (staple 1-4, 4-11, Stapled peptide composition) [I-208], the EC50 was 143 nM. Turning to Ac-[αAllylPro]DA[B5(4)]DEAA[Phe(3-Me)]V[S8]FWQ-NH2 (staple 1-4, 4-11, Stapled peptide composition) [I-207], the EC50 amounted to 143 nM. For the molecule Ac-[αAllylPro]DA[B5(4)]DEAA[Phe(3,4-F2)]V[S8]F[2Nal]Q-NH2 (staple 1-4, 4-11, Stapled peptide composition) [I-184], the EC50 worked out at 628 nM. For B5, the 50% effective concentration (EC50) was determined as 518 nM. For B6, the EC50 is 156 nM.

The next assay has the same target. As to the kind of experiment: fluorescence polarization competition; full-length beta-catenin + 5FAM-TCF4(10-53) probe as competitor; peptide titrated. As for the experimental part:
as §1
B2: the EC50 is 696 nM.

Take B3: the EC50 turned out to be 3320 nM. On to B4, for which the EC50 stood at 1600 nM. On the same count and under the same terms, for Ac-[αAllylPro]DA[B5(4)]DEAA[Phe(3-Me)]V[S8]FWQ-NH2 (staple 1-4, 4-11, Stapled peptide composition) [I-208] the value was 1740 nM.

Regarding Ac-[αAllylPro]DA[B5(4)]DEAA[Phe(3-Me)]V[S8]FWQ-NH2 (staple 1-4, 4-11, Stapled peptide composition) [I-207], the EC50 was found to be 1740 nM.

For the molecule Ac-[αAllylPro]DA[B5(4)]DEAA[Phe(3,4-F2)]V[S8]F[2Nal]Q-NH2 (staple 1-4, 4-11, Stapled peptide composition) [I-184], the EC50 came out at 3110 nM. As to B5, the EC50 came to 5000 nM.

Take B6: the EC50 is 1600 nM.

The target in the next assay is T3, full-length beta-Catenin (Uniprot ID …). As to the kind of experiment: FP competition vs 5FAM-TCF4(10-53) probe on full-length beta-catenin. How it is done:
as §1
On to B7, for which the EC50 turned out to be 1910 nM.
